This experiment deals with T1, GST-SLR1 (rice (Oryza sativa), UniProt Q7G7J6 1-625).
T1 construct: SLENDER RICE 1 (SLR1), the rice DELLA protein; 'the cDNAs encoding SLR1'; source: E. coli Rosetta (DE3), purified (GSTrap FF column)
T1 sequence: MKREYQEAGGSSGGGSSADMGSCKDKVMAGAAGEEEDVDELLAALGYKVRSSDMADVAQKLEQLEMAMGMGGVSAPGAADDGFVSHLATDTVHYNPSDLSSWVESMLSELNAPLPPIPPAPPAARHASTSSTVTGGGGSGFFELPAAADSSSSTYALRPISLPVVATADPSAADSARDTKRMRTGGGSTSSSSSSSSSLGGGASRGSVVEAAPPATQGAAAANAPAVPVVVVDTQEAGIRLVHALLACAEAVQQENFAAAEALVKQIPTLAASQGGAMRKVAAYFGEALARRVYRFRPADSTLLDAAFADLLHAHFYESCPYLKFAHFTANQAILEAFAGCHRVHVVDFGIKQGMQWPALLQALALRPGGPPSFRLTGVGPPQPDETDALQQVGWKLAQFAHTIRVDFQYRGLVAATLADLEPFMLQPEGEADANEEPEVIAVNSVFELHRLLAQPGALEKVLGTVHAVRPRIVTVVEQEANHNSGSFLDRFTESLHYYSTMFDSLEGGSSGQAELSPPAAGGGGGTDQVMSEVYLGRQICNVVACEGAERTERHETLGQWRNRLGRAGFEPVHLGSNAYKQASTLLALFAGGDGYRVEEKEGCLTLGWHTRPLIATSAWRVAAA
In words: pull-down; competitive pull-down: GST-SLR1 and MBP-His-OsGID1 with 100 µM GA3, then 10 or 50 µg TF-His-SP8 (or MBP-His-P2), 4 °C about 2 h; GST beads; anti-GST and anti-His blots. The following applies: both partners purified.

B1: MBP-His-OsGID1 (receptor)
chain: MAGSDEVNRNECKTVVPLHTWVLISNFKLSYNILRRADGTFERDLGEYLDRRVPANARPLEGVSSFDHIIDQSVGLEVRIYRAAAEGDAEEGAAAVTRPILEFLTDAPAAEPFPVIIFFHGGSFVHSSASSTIYDSLCRRFVKLSKGVVVSVNYRRAPEHRYPCAYDDGWTALKWVMSQPFMRSGGDAQARVFLSGDSSGGNIAHHVAVRAADEGVKVCGNILLNAMFGGTERTESERRLDGKYFVTLQDRDWYWKAYLPEDADRDHPACNPFGPNGRRLGGLPFAKSLIIVSGLDLTCDRQLAYADALREDGHHVKVVQCENATVGFYLLPNTVHYHEVMEEISDFLNANLYY
notes: OsGID1, the rice gibberellin receptor GIBBERELLIN … DWARF1; also called PET32a-MBP-His-OsGID1; source: E. coli Rosetta (DE3), purified (Ni-NTA His-trap column)
As for B1, the binding result was “binds”.

Source of the values: article PMC9663503, “Independently evolved viral effectors convergently suppress DELLA protein SLR1-mediated broad-spectrum antiviral immunity in rice” (Nature Communications, 2022).
